Reference: PMC9868417, “Functional characterization of a novel aminoglycoside phosphotransferase, APH(9)-Ic, and its variant from Stenotrophomonas maltophilia” (Frontiers in Cellular and Infection Microbiology, 2023)

Test system: CN[C@@H]1[C@H](O)[C@H](NC)[C@H]2O[C@@]3(O)C(=O)C[C@@H](C)O[C@H]3O[C@@H]2[C@H]1O
Test: purified protein
Type: biochemical, Stenotrophomonas maltophilia
Details: 2 mM ATP, 10 mM MgCl2, 20 mM KCl, 100 mM HEPES pH 7.0, 37 °C

APH(9)-Ic (Stenotrophomonas maltophilia K279a)
Km: 31 ± 5 µM | kcat: 1.09 ± 0.09 s⁻¹
